Experimental data taken from patent US20240376151A1, “STAPLED PEPTIDES AND METHODS THEREOF” (FOG PHARMACEUTICALS, INC., priority 2022, published 2024).
Numbered stars: 1 amine (or outer) side, 2 acyl side, 3 side chain; on linkers, the order of the positions; unused ones are H or OH. Bridge positions count the residues as written; N and C are the ends. Ends that are not written are not given here. Phenylene(1,4-NHCOCH2)2 = O=C(C[*:1])Nc1ccc(NC(=O)C[*:2])cc1

Target: T1, MDM2 (Homo sapiens, UniProt Q00987)
T1 construct: made in house
Assay: Naive Library Presenter Screening (phage, NGS), MDM2
Format: binding
Settings: for interaction data, BLANK: Blank = Media only

[1] = MDM2 target concentration 10 nM
[2] = MDM2 target concentration 30 nM
[3] = MDM2 target concentration 100 nM
[4] = MDM2 target concentration 300 nM
[5] = MDM2 target concentration 1000 nM, first column
[6] = MDM2 target concentration 1000 nM, second column
[7] = MDM2 clusters (C82, C85), first column
[8] = MDM2 clusters (C82, C85), second column
[9] = MDM2 clusters (C82, C85), target concentration 10 nM
[10] = MDM2 clusters (C82, C85), target concentration 30 nM
[11] = MDM2 clusters (C82, C85), target concentration 100 nM
[12] = MDM2 clusters (C82, C85), target concentration 300 nM
[13] = MDM2 clusters (C82, C85), target concentration 1000 nM, first column
[14] = MDM2 clusters (C82, C85), target concentration 1000 nM, second column

T1 sequence (Q00987 25-109): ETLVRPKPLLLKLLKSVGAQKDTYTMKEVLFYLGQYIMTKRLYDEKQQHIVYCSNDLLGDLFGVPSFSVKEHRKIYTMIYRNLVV

Sequence | interaction data at Target Concentration 10 [1] | interaction data at Target Concentration 30 [2] | interaction data at Target Concentration 100 [3] | interaction data at Target Concentration 300 [4] | interaction data at Target Concentration 1000 [5] | interaction data at Target Concentration 1000 [6] | interaction data, BLANK [7] | interaction data, BLANK [8] | interaction data at Target Concentration 10 [9] | interaction data at Target Concentration 30 [10] | interaction data at Target Concentration 100 [11] | interaction data at Target Concentration 300 [12] | interaction data at Target Concentration 1000 [13] | interaction data at Target Concentration 1000 [14]
DPAENECFTAAWDCMFF (linker 7-14 via Phenylene(1,4-NHCOCH2)2 (inferred)) | 0 | 0 | 7 | 51 | 70 | 40 |  |  |  |  |  |  |  | 
DPANHACFQAAWDCQFF (linker 7-14 via Phenylene(1,4-NHCOCH2)2 (inferred)) | 11 | 154 | 643 | 1045 | 776 | 1088 |  |  |  |  |  |  |  | 
DPAYEDCFFAAWNCMMV (linker 7-14 via Phenylene(1,4-NHCOCH2)2 (inferred)) |  |  |  |  |  |  | 0 | 0 | 0 | 5 | 18 | 17 | 23 | 39
DPAFDSCFSAAWDCMYW (linker 7-14 via Phenylene(1,4-NHCOCH2)2 (inferred)) | 3 | 0 | 27 | 92 | 65 | 84 |  |  |  |  |  |  |  | 
DPADRDCFSAAWACVIR (linker 7-14 via Phenylene(1,4-NHCOCH2)2 (inferred)) |  |  |  |  |  |  | 0 | 0 | 0 | 37 | 188 | 209 | 160 | 215
DPAAQECFRAAWRCMQD (linker 7-14 via Phenylene(1,4-NHCOCH2)2 (inferred)) |  |  |  |  |  |  | 0 | 0 | 0 | 0 | 25 | 37 | 34 | 29
DPALMQCTEAAFWCYWE (linker 7-14 via Phenylene(1,4-NHCOCH2)2 (inferred); not fully specified (C-terminus)) |  |  |  |  |  |  | 0 | 0 | 0 | 0 | 24 | 36 | 24 | 32
DPATQQCFQAAWDCQFM (linker 7-14 via Phenylene(1,4-NHCOCH2)2 (inferred)) | 1 | 60 | 324 | 683 |  | 679 |  |  |  |  |  |  |  | 
DPAAVQCNTAAFQCYWF (linker 7-14 via Phenylene(1,4-NHCOCH2)2 (inferred)) |  |  |  |  |  |  | 0 | 0 | 0 | 0 | 23 | 56 | 53 | 69
DPAQHHCQQAAFWCQWW (DPAQHHCQQAAFWCQWW-NH2; linker 7-14 via Phenylene(1,4-NHCOCH2)2 (inferred)) |  |  |  |  |  |  | 0 | 0 | 0 | 0 | 13 | 13 | 36 | 18
DPAINTCQDAAFWCYWS (linker 7-14 via Phenylene(1,4-NHCOCH2)2 (inferred)) |  |  |  |  |  |  | 0 | 0 | 0 | 131 | 203 | 226 | 185 | 315
DPARQDCFSAAWMCMAI (DPARQDCFSAAWMCMAI-NH2; linker 7-14 via Phenylene(1,4-NHCOCH2)2 (inferred)) |  |  |  |  |  |  | 0 | 0 | 0 | 1 | 94 | 107 | 120 | 114

The remaining lines, values ahead:

interaction data at Target Concentration 10 [1] | interaction data at Target Concentration 30 [2] | interaction data at Target Concentration 100 [3] | interaction data at Target Concentration 300 [4] | interaction data at Target Concentration 1000 [5] | interaction data at Target Concentration 1000 [6] | interaction data, BLANK [7] | interaction data, BLANK [8] | interaction data at Target Concentration 10 [9] | interaction data at Target Concentration 30 [10] | interaction data at Target Concentration 100 [11] | interaction data at Target Concentration 300 [12] | interaction data at Target Concentration 1000 [13] | interaction data at Target Concentration 1000 [14] | Sequence
2 | 57 | 241 | 559 | 336 | 447 |  |  |  |  |  |  |  |  | DPASEACFQAAWDCVSW (DPASEACFQAAWDCVSW-NH2; linker 7-14 via Phenylene(1,4-NHCOCH2)2 (inferred))
 |  |  |  |  |  | 0 | 0 | 0 | 42 | 149 | 156 | 202 | 149 | DPAHRQCFTAAWRCMMT (linker 7-14 via Phenylene(1,4-NHCOCH2)2 (inferred))
 |  |  |  |  |  | 0 | 0 | 1 | 15 | 170 | 133 | 176 | 188 | DPAETDCSQAAFWCYWQ (linker 7-14 via Phenylene(1,4-NHCOCH2)2 (inferred))
 |  |  |  |  |  | 0 | 0 | 0 | 0 | 15 | 37 | 23 | 48 | DPAQEDCHAAAFWCIWD (DPAQEDCHAAAFWCIWD-NH2; linker 7-14 via Phenylene(1,4-NHCOCH2)2 (inferred))
1 | 0 | 51 | 22 | 20 | 23 |  |  |  |  |  |  |  |  | DPADNRCFQAAWDCAFW (linker 7-14 via Phenylene(1,4-NHCOCH2)2 (inferred))
 |  |  |  |  |  | 0 | 0 | 0 | 78 | 135 | 155 | 110 | 150 | DPAYSDCFQAAWTCMIH (linker 7-14 via Phenylene(1,4-NHCOCH2)2 (inferred))
 |  |  |  |  |  | 0 | 0 | 0 | 2 | 33 | 74 | 57 | 82 | DPAHYECTDAAFECYWF (linker 7-14 via Phenylene(1,4-NHCOCH2)2 (inferred))
 |  |  |  |  |  | 0 | 0 | 0 | 12 | 132 | 166 | 104 | 237 | DPAQQDCFLAAWDCVWQ (DPAQQDCFLAAWDCVWQ-NH2; linker 7-14 via Phenylene(1,4-NHCOCH2)2 (inferred))
 |  |  |  |  |  | 0 | 0 | 0 | 0 | 9 | 7 | 8 | 11 | DPAHNLCFDAAWWCHWQ (linker 7-14 via Phenylene(1,4-NHCOCH2)2 (inferred))
 |  |  |  |  |  | 0 | 0 | 0 | 0 | 17 | 31 | 32 | 37 | DPARLRCQDAAFACMWY (DPARLRCQDAAFACMWY-NH2; linker 7-14 via Phenylene(1,4-NHCOCH2)2 (inferred))
